Molecular target: histidine kinase UzcS (Caulobacter crescentus NA1000)
Experiment: cell-based or functional assay

Sequence of histidine kinase UzcS (Caulobacter crescentus NA1000) (chain, as listed by the source limits assumed, form in doubt): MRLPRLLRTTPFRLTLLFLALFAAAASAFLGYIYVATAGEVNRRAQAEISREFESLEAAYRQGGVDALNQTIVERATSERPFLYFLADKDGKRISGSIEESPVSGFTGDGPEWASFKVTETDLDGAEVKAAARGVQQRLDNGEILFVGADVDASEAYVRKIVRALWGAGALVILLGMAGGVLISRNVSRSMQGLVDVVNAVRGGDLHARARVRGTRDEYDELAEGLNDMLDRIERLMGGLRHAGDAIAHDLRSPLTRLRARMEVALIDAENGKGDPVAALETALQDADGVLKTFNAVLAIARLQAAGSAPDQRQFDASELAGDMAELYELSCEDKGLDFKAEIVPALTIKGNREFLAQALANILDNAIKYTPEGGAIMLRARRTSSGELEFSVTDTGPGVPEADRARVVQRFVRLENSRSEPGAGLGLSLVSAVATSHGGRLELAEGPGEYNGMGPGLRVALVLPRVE

## UzcY (protein encoded by CCNA_03497)
  fold decrease in U detection limit of UzcRS (reporter fluorescence in C. crescentus, +UzcY versus -UzcY, FIG. 12): > 4 fold
